B1: FIXa Y155F/R318Y/T343R/R403E (protein)
chain 1: not shown
chain 2: not shown
B2: FIXa Y155F/R318Y/R338E/T343R (protein)
chain 1: not shown
chain 2: not shown
B3: FIXa K247N/N249S/T343R/R403E/E410N (protein)
chain 1: not shown
chain 2: not shown
B4: FIXa Y155F/K247N/N249S/T343R/E410N (protein)
chain 1: not shown
chain 2: not shown
B5: FIXa R318Y/R338E/T343R (protein)
chain 1: not shown
chain 2: not shown
B6: FIXa Y155F/K247N/N249S/R318Y/R338E/T343R (protein)
chain 1: not shown
chain 2: not shown
B7: FIXa Y155F/T343R/R403E/E410N (protein)
chain 1: not shown
chain 2: not shown
B8: FIXa K247N/N249S/R318Y/R338E/T343R (protein)
chain 1: not shown
chain 2: not shown
B9: FIXa Y155F/K247N/N249S/R318Y/R338E/T343R/E410N (protein)
chain 1: not shown
chain 2: not shown

molecular target: Factor X (FX), P00742
Sequence (P00742 whole entry, looked up): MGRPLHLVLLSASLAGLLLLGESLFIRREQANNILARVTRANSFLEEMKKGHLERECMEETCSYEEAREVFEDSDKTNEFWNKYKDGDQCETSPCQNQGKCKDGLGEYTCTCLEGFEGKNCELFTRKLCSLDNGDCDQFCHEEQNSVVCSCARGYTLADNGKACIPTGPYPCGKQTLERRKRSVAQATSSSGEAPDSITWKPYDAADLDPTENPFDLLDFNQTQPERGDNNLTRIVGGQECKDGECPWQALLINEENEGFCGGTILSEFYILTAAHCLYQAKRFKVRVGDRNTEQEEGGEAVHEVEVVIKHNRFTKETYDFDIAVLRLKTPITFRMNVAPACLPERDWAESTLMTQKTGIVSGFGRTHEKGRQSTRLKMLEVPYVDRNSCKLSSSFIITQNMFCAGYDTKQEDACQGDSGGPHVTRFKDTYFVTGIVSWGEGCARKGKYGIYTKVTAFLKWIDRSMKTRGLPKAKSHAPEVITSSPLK

Protein | kcat (s^-1), activation of FX by FIXa in the Xase complex [s⁻¹]
B1 | 5
B2 | 7.9
B3 | 8
B4 | 7.9
B5 | 4.5
B6 | 8.5
B7 | 6.6
B8 | 8

molecular target: Factor X, P00742
Sequence (P00742 whole entry, looked up): as above

Protein | % of WT kcat/KM [%] | kcat/KM [M⁻¹ s⁻¹]
B1 | 154 | 7.1e+07
B2 | 771 | 3.6e+08
B3 | 285 | 1.3e+08
B4 | 599 | 2.8e+08
B9 | 1091 | 5e+08
B5 | 324 | 1.5e+08
B6 | 772 | 3.6e+08
B7 | 321 | 1.5e+08
B8 | 840 | 3.9e+08

— patent US11491212
